Measurements from US20060084789A1, “Immunotherapeutic and immunoprphylactic reagents” (priority 2002, published 2006).

Columns and labels:
RGP-specific TCL = experiment: TCL proliferation assay (3H-thymidine incorporation, stimulation index); type: cell-based, human; settings: for Proliferative response, stimulation index: peptides 10 μg/ml; for TCL that responded, response to allergen or peptide: allergen responsiveness considered as response to allergen or peptide; for TCL tested that responded to purified allergen: ten of fourteen TCL (Lol p 1), nine of fifteen TCL (Lol p 5), positive if SI ≥2.5
Description: Generation of Short-Term RGP-Specific TCL
PBMC were cultured in 24-well plates (Costar, Mass., USA) at 2.5×10^6 cells/well with RGP extract at a concentration of 25 or 50 μg/ml in RPMI 1640 medium (Gibco BRL, NY, USA) supplemented with 2 mM GlutaMAX I (Gibco BRL), 0.05 mg/ml gentamicin (David Bull Laboratories, Mulgrave, Victoria, Australia) and 5% heat-inactivated hunan AB^+ serum (Sigma, Mo., USA) for 7 days at 37° C. in a 5% CO2 humidified incubator. At day 7, cells were washed once and restimulated in 24-well plates at 5×10^5 cells/well width 25 or 50 μg/ml of RGP extract in the presence of 5×10^5 cells/well irradiated (3000 rads) autologous PBMC as a source of antigen presenting cells (APC). At day 2 following restimulation, 10 U/ml of Lymphocult T-LF (LC; Biotest, Germany) was added as a source of IL-2 and at day 4, 1 ml of culture medium was removed and replaced with fresh medium and 10 U/ml of LC. […] In all experiments T cells were rested for 6 to 7 days after the last addition of antigen and APC before testing.
T cells (5×10^4/well) were cultured in 96-well U bottom plates with either RGP extract at concentrations ranging from 25 to 200 μg/ml, purified Lol p 1 (0.12 to 2 μg/ml) or Lol p 5 (0.1 to 10 μg/ml), or Lol p 1 or Lol p 5 peptides (10 μg/ml), or medium alone (to determine background levels of proliferation), in the presence of washed autologous irradiated (3000 rads) PBMC (5×10^4/well). […] Cultures were incubated for 3 days, pulsed for the last 16 hours with ^3H-thymidine (1 μCi/well) and harvested onto glass fibre filters. ^3H-thymidine incorporation was measured by liquid scintillation spectroscopy and the mean counts per minute (cpm) for triplicate cultures was determined. Responses were considered positive if the stimulation index (SI, cpm of antigen-stimulated T cells divided by cpm of unstimulated T cells) was ≧2.5. Where several concentrations of allergen were tested (i.e., RGP, Lol p 1 and Lol p 5), values corresponding to the highest proliferation are shown.

[1] = tested on: oligoclonal house dust mite (HDM)- or low ammoniated latex (LAL)-reactive CD44^+ T cells; experiment: Mitogenicity check with irrelevant-antigen T cells and irradiated autologous PBMC; type: cell-based; settings: culture with HDM- or LAL-reactive T cells and irradiated autologous PBMC; data not shown
Text: Mitogenicity of RGP, Lol p 1, Lol p 5 and peptides was excluded by culturing with oligoclonal house dust mite (HDM)- or low ammoniated latex (LAL)-reactive CD44^+ T cells in the presence of irradiated autologous PBMC, and toxicity was excluded by co-culture of antigens with HDM- or LAL-reactive T cells in the presence of IL-2 (data not shown).

Molecule | Proliferative response, stimulation index (RGP-specific TCL; Subject 1 TCL, Lol p 1 series (Table 3), RGP and Lol p 1 maximal response) | Proliferative response, stimulation index (RGP-specific TCL; Subject 2 TCL, Lol p 1 series (Table 3), RGP and Lol p 1 maximal response) | Proliferative response, stimulation index (RGP-specific TCL; Subject 4 TCL, Lol p 1 series (Table 3), RGP and Lol p 1 maximal response) | Proliferative response, stimulation index (RGP-specific TCL; Subject 5 TCL, Lol p 1 series (Table 3), RGP and Lol p 1 maximal response) | Proliferative response, stimulation index (RGP-specific TCL; Subject 6 TCL, Lol p 1 series (Table 3), RGP and Lol p 1 maximal response) | Proliferative response, stimulation index (RGP-specific TCL; Subject 8 TCL, Lol p 5 series (Table 4), RGP and Lol p 5 maximal response) | Proliferative response, stimulation index (RGP-specific TCL; Subject 11 TCL, Lol p 5 series (Table 4), RGP and Lol p 5 maximal response) | Proliferative response, stimulation index (RGP-specific TCL; Subject 15 TCL, Lol p 1 series (Table 3), RGP and Lol p 1 maximal response) | Proliferative response, stimulation index (RGP-specific TCL; Subject 19 TCL, Lol p 1 series (Table 3), RGP and Lol p 1 maximal response) | Proliferative response, stimulation index (RGP-specific TCL; Subject 27 TCL, Lol p 5 series (Table 4), RGP and Lol p 5 maximal response, † affinity purified Lol p 5) | Proliferative response, stimulation index (RGP-specific TCL; Subject 38 TCL, Lol p 5 series (Table 4), RGP and Lol p 5 maximal response, * SDS-PAGE purified Lol p 5) | TCL that responded, response to allergen or peptide (RGP-specific TCL) [%] | TCL tested that responded to purified allergen (RGP-specific TCL) [%] | Mitogenicity [1]
Lol p 1: Rye grass pollen allergen purified from crude RGP extracts by SDS-PAGE (protein, Lolium perenne, Rye grass pollen allergen purified from crude RGP extracts by SDS-PAGE) IAKVPPGPNITAEYGDKWLDAKSTWYGKPTGAGPKDNCGACGYKDVDKAPFNGMTGCGNTPIFKDGRGCGSCFEIKCTKPESCSGEAVTVTITDDNEEPIAPYHFDLSGHAFGSMAKKGEEQKLRASAGELELQFRRVKCKYPDGTKPTFHVEKASNPNYLAILVKYVDGDGDVVAVDIKEKGKDKWIELKESWGAVWRIDTPDKLTGPFTVRYTTEGGTKSEVEDVIPEGWKADTSYSAK | 5.9 | 3.0 | 2.9 | 2.5 | 4.0 | 4.3 | 3.4 | 0.3 | 10.5 | 3.8† | 3.2* | 79 | 71 | excluded
Lol p 5: Rye grass pollen allergen purified from RGP extract by SDS-PAGE or affinity chromatography (mAb FMC A7) (protein) ADAGYTPAAAATPATPAATPAAAGGKATTDEQKLLEDVNAGFKAAVAAAANAPPADKFKIFEAAFSESSKGLLATSAAKAPGLIPKLDTAYDVAYKAAEGATPEAKYDAFVTALTEALRVIAGALEVHAVKPATEEVPAAKIPTGELQIVDKIDAAFKIAATAANAAPTNDKFTVFESAFNKALNECTGGAYETYKFIPSLEAAVKQAYAATVAAAPEVKYAVFEAALTKAITAMTQAQKAGKPAAAAATGAATVATGAATAAAGAATAAAGGYKA |  |  |  |  |  |  |  |  |  |  |  | 91 | 60 | excluded
